The text below walks through data of patent US20240181135A1, “BIOCHEMICAL ACTIVATION OF DYSFUNCTIONAL SKELETAL STEM CELLS FOR SKELETAL REGENERATION” (The Board of Trustees of the Leland Stanford Junior …, priority 2021, published 2024).

The test relates to femoral fractures of ‘2-mo’ mice. Description: Hydrogels containing recombinant Csf1 applied to femoral fractures of young mice (μCT and flow cytometry). The test is classed as in vivo, mouse. The following applies: 5 μg recombinant Csf1 in hydrogel, versus PBS. An excerpt:
We also tested whether these increases in Csf1 affected bone maintenance and regeneration. […] Unexpectedly, however, femora harvested from transgenic mice at post-fracture day-21 had decreased mechanical strength compared to wild-type controls despite having increased BMD and similar callus volume (FIG. 3p-q & FIG. 11g). […] In total, SSC lineage derived Csf1 might drive increased bone resorption by stimulating higher osteoclast activity, and this activity needs to be maintained and finely balanced for proper bone health.
Bi-cortical femoral fracture: Animals were anaesthetized using aerosolized isoflurane and analgesia was administered before incision. The femur was exposed following muscle distraction and lateral dislocation of the patella. […]
Micro-computed tomography: Femora were harvested and cleaned of soft tissue. […] Reconstructed samples were analyzed using CT Analyser and CTvox software (Bruker). Trabecular bone parameters of uninjured femur bones were assessed by analyzing a region of 200 sections which was defined 50 sections distal of the end of the growth plate. Fracture calluses were analyzed by selecting 150 sections in both directions of the fracture gap yielding a total area of 300 sections. […]

B1: recombinant Csf1: recombinant Csf1 (5 μg) in hydrogel with defined release kinetics, applied to fractures (protein, UniProt P07141 33-552, looked up)
Macrophage colony-stimulating …: KEVSEHCSHMIGNGHLKVLQQLIDSQMETSCQIAFEFVDQEQLDDPVCYLKKAFFLVQDIIDETMRFKDNTPNANATERLQELSNNLNSCFTKDYEEQNKACVRTFHETPLQLLEKIKNFFNETKNLLEKDWNIFTKNCNNSFAKCSSRDVVTKPDCNCLYPKATPSSDPASASPHQPPAPSMAPLAGLAWDDSQRTEGSSLLPSELPLRIEDPGSAKQRPPRSTCQTLESTEQPNHGDRLTEDSQPHPSAGGPVPGVEDILESSLGTNWVLEEASGEASEGFLTQEAKFSPSTPVGGSIQAETDRPRALSASPFPKSTEDQKPVDITDRPLTEVNPMRPIGQTQNNTPEKTDGTSTLREDHQEPGSPHIATPNPQRVSNSATPVAQLLLPKSHSWGIVLPLGELEGKRSTRDRRSPAELEGGSASEGAARPVARFNSIPLTDTGHVEQHEGSSDPQIPESVFHLLVPGIILVLLTVGGLLFYKWKWRSHRDPQTLDSSVGRPEDSSLTQDEDRQVELPV
modifications: in hydrogel
notes: recombinant Csf1 (5 μg) in hydrogel with defined release kinetics, applied to fractures
As for B1, the “Fracture healing (μCT of day-10 calluses)” value is on record as “impaired healing” and the “SSC frequency at day-10 (flow cytometry)” value is recorded as “without alteration of SSC frequency”.
